Results as given in patent US20220175873A1.
No end group written: not given here.

What was measured:
[1] = target: GABAA receptor of rat cerebral cortex plasma membranes (rat); assay: [^3H]-Flunitrazepam radioligand analysis (benzodiazepine site), 25 min pre-incubation + 30 min incubation, 24 °C; FQSE 10^-5 M
[2] = target: GABAA receptor of rat cerebral cortex plasma membranes (rat); assay: [^3H]-Flunitrazepam radioligand analysis (benzodiazepine site), 25 min pre-incubation + 30 min incubation, 4 °C; FQSE 10^-5 M
[3] = target: FQSE (SEQ ID NO:10)-specific binding sites in rat cortex membranes (rat); assay: displacement of [^3H]-FQSE by unlabeled FQSE, rat cortex membranes, 25 min at room temperature
[4] = target: GABAA receptor of rat cerebral cortex plasma membranes (rat); assay: [^3H]-Flunitrazepam radioligand analysis (benzodiazepine site), 30 min incubation, 24 °C; FQSE 10^-5 M
[5] = target: GABAA receptor of rat cerebral cortex plasma membranes (rat); assay: [^3H]-Flunitrazepam radioligand analysis (benzodiazepine site), 30 min incubation, 24 °C; FQSE 10^-4 M
[6] = target: GABAA receptor of rat cerebral cortex plasma membranes (rat); assay: [^3H]-Flunitrazepam radioligand analysis (benzodiazepine site), 25 min pre-incubation + 30 min incubation, 24 °C; FQSE 10^-4 M
[7] = target: GABAA receptor of rat cerebral cortex plasma membranes (rat); assay: [^3H]-Flunitrazepam radioligand analysis (benzodiazepine site), 30 min incubation, 4 °C; FQSE 10^-5 M
[8] = target: GABAA receptor of rat cerebral cortex plasma membranes (rat); assay: [^3H]-Flunitrazepam radioligand analysis (benzodiazepine site), 30 min incubation, 4 °C; FQSE 10^-4 M
[9] = target: GABAA receptor of rat cerebral cortex plasma membranes (rat); assay: [^3H]-Flunitrazepam radioligand analysis (benzodiazepine site), 25 min pre-incubation + 30 min incubation, 4 °C; FQSE 10^-4 M
[10] = target: FQSE (SEQ ID NO:10)-specific binding sites in rat cortex membranes (rat); assay: radioligand analysis with [3H] FQSE and unlabeled FQSE on membranes isolated by various techniques
[11] = target: NMDA receptors of rat hippocampal plasma membranes (rat); assay: radioligand analysis with [^3H]-FQSE and unlabeled FQSE on rat hippocampal membranes isolated for NMDA receptors (negative control)
[12] = target: FQSE (SEQ ID NO:10)-specific binding sites in rat cortex membranes (rat); assay: radioligand analysis, rat cortex membranes, incubation 30 min at 24 °C
[13] = target: FQSE (SEQ ID NO:10)-specific binding sites in rat cortex membranes (rat); assay: radioligand analysis, rat cortex membranes, incubation 20 min at 4 °C
[14] = target: FQSE (SEQ ID NO:10)-specific binding sites in rat cortex membranes (rat); assay: radioligand analysis, rat cortex membranes, incubation 20 min at 37 °C
[15] = target: FQSE (SEQ ID NO:10)-specific binding sites in rat cortex membranes (rat); assay: radioligand analysis, rat cortex membranes, incubation 25 min at 24 °C (selected condition)
[16] = target: FQSE (SEQ ID NO:10)-specific binding sites in rat cortex membranes (rat); assay: radioligand analysis, rat cortex membranes, incubation 10 min at 4 °C
[17] = target: FQSE (SEQ ID NO:10)-specific binding sites in rat cortex membranes (rat); assay: radioligand analysis, rat cortex membranes, incubation 30 min at 37 °C
[18] = target: FQSE (SEQ ID NO:10)-specific binding sites in rat cortex membranes (rat); assay: radioligand analysis, rat cortex membranes, buffer with added salts (NaCl, KCl, KH2PO4, CaCl2, MgCl2)
[19] = target: FQSE (SEQ ID NO:10)-specific binding sites in rat cortex membranes (rat); assay: radioligand analysis, rat cortex membranes, incubation 10 min at 37 °C
[20] = target: FQSE (SEQ ID NO:10)-specific binding sites in rat cortex membranes (rat); assay: radioligand analysis, rat cortex membranes, incubation 20 min at 24 °C

| Binder | Specific binding of [^3H]-Flunitrazepam, relative to control levels, % [1] [%] | Specific binding of [^3H]-Flunitrazepam, relative to control levels, % [2] [%] | IC50 [3] [nM] | Specific binding of [^3H]-Flunitrazepam, relative to control levels, % [4] [%] | Specific binding of [^3H]-Flunitrazepam, relative to control levels, % [5] [%] | Specific binding of [^3H]-Flunitrazepam, relative to control levels, % [6] [%] | Specific binding of [^3H]-Flunitrazepam, relative to control levels, % [7] [%] | Specific binding of [^3H]-Flunitrazepam, relative to control levels, % [8] [%] | Specific binding of [^3H]-Flunitrazepam, relative to control levels, % [9] [%] | specific FQSE binding percentage of the total binding [10] [%] | difference between total and non-specific binding [11] [%] | % percentage of specific binding of total binding [12] [%] | % percentage of specific binding of total binding [13] [%] | % percentage of specific binding of total binding [14] [%] | % percentage of specific binding of total binding [15] [%] | % percentage of specific binding of total binding [16] [%] | % percentage of specific binding of total binding [17] [%] | percentage of specific binding [18] [%] | % percentage of specific binding of total binding [19] [%] | % percentage of specific binding of total binding [20] [%] |
| --- | --- | --- | --- | --- | --- | --- | --- | --- | --- | --- | --- | --- | --- | --- | --- | --- | --- | --- | --- | --- |
| FQSE [FQSE (SEQ ID NO:10) peptide, unlabeled] | 99.8 | 101 | 2000 | 101 | 101 | 101 | 100 | 100 | 101 |  |  |  |  |  |  |  |  |  |  |  |
| FQSE (also: tritium label ([3H]), position not given here) [[^3H]-FQSE (SEQ ID NO:10), tritium radiolabeled peptide] |  |  |  |  |  |  |  |  |  | 0 to 47 | 11 | 78 | 48 | 79 | 86 | 47 | 77 | 63 | 72 | 75 |
